In publication PMC12499889, “Voltage-matrix nanopore profiling for the discrimination of protein mixtures”:

Target: carcinoembryonic antigen (CEA) (UniProt P06731 35-685)
Assay: solid-state nanopore (single-molecule); 3.6 M LiCl; 10 nM CEA, 1 uM aptamer; shift in signal distribution; 3.6 M LiCl, 10 mM HEPES-KOH pH 8.0; 1 uM aptamer incubated with 10 nM CEA for 1 h; temperature not stated; nanopore at -50 to -300 mV
Conditions: protein: commercial

Sequence of carcinoembryonic antigen (CEA) (P06731 35-685): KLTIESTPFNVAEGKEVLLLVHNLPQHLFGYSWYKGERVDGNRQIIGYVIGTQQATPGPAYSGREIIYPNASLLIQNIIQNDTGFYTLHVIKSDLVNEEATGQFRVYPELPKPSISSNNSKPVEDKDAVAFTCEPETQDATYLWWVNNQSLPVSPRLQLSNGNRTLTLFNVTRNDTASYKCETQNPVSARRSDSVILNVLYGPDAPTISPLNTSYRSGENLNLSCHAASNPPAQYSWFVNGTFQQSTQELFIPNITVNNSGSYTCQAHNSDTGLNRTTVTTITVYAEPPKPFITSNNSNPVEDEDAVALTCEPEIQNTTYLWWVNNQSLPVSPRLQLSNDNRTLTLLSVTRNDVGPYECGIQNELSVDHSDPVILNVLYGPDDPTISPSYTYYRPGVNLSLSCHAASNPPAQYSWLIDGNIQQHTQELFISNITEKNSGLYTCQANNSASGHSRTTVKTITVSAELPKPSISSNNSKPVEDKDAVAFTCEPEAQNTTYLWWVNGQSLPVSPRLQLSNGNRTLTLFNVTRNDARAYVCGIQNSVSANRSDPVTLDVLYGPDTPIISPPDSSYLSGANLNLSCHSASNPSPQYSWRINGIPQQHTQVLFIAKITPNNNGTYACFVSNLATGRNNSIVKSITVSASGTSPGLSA

B1: CEA DNA aptamer (ssDNA)
DNA: TCGCGCGAGTCGTCTGGGAGCTACGTTTAGCGAGTCCGACGCTCGGTGCCTCTTCGGGAGGACGATGCGG
**Q.** Does B1 bind?
**A.** Result: binds
